Entries after “also recorded” stand apart in the source; their conditions may differ.
How the values were obtained:
[1] = system: astrocytic MCP-1 expression; assay: Northern blot analysis of MCP-1 RNA in stimulated human astrocytes; type: cell-based
From the text: FIG. 1A—Total RNA was extracted from T lymphoblastoid HUT 78 cells (ATCC), and from variously treated human astrocytes. Ten μg per lane were then run on a 1% agarose-6% formaldehyde gel. Following transfer of RNA to nitrocellulose, the blot was probed with the full-length cDNA for MCP-1, and subsequently, RANTES. RNA from untreated astrocytes was run in lanes 2 and 4. […] Astrocytic expression of RANTES was not detected.
FIG. 1B—Similar experience except that RNA from HUT 78 cells (lane 1) was compared to RNA from astrocytes that were unstimulated (lane 2) or stimulated for 2 hr with 100 nM Tat (lane 3), 25 μM TPCK followed by 100 nM Tat (lane 4) or 25 μM TPCK (lane 5).
Brain tissue from 12-14 wk human fetuses was obtained in accordance with NIH guidelines. The tissue was mechanically disrupted by aspiration through a 19-gauge needle, washed in Eagle's minimal essential medium (EMEM) and then distributed into tissue culture flasks. Cells were maintained in EMEM containing 10% fetal bovine serum, 2 mM L-glutamine and 5 μg/ml gentamicin. Several days later, flasks were placed into an orbital incubator shaker at 37° C. and 210 rpm for 6 hr. Non-adherent cells were removed. A portion of the adherent cells were later stained with an antibody to glial fibrallary acidic protein and only those cultures which were >95% positive were used. […]

[2] = system: astrocytic release of MCP-1; assay: Immunoassay (ELISA) and Western blot of MCP-1 in astrocyte supernatants; type: cell-based, human
Method: FIG. 2A—Astrocytes were grown to near confluency in […]. Each well contained 10^6 cells in 1 ml medium. Medium was then changed and astrocytes were stimulated with exogenous Tat in doses ranging from 0.01 to 1.0 μM. Twenty hr later, samples were taken for analysis by immunoassay (R&D Systems). […] Data are shown as means +S.E. for three replicates.
FIG. 2B—Similar experiment except that astrocytes were stimulated with 100 nM Tat or with an equivalent amount of Tat that had first been either digested with tripsin (Tat-tr) or immunoabsorbed (Tat-im).
FIG. 3—Western blot analysis of MCP-1 in astrocyte supernatants. In lanes 2-7, 50 μg of protein from variously treated astrocyte supernatants were run on a 15% Tris/Glycine denaturing gel. Three ng of non-glycosylated recombinant MCP-1 (R&D Systems) were run in lane 1 as a control. Following protein transfer to nitrocellulose, the blot was probed with a polyclonal antibody with recognized human MCP-1 (R&D Systems). After washing, an appropriate secondary antibody was applied (horse radish peroxidase conjugated anti-goat, [Santa-Cruz Biotechnology]) and electrochemilurninescence (Amersham) was used to visualize the bands. […] The lower arrow represents a band, which runs with an apparent molecular mass of 9 kDa while the upper band, of slighter high molecular mass, is likely to represent MCP-1, which has been altered by the addition of O-linked carbohydrates. Both forms of MCP-1 are active in vitro.
Astrocytes (10^6 per 1 ml medium) were stimulated with 100 nM HIV-1IIIB gp41 (Intracel) or 100 nM HIV-1IIB gp 120 (Intracel), and supernantants were assessed 24 hr. later by immunoassay (R&D Systems).
Trypsin digestion of Tat was performed by the addition of 25 μl of 0.25% trypsin per μg of Tat. The mixture was then incubated for 4 hr. before the 1:1 addition of soybean tripsin inhibitor (Sigma).
Immunoabsorption of Tat was performed as described previously by Magnusson et al. (1995). Briefly, a Tat specific monoclonal antibody (Intracel) was bound to protein A-sepharose (Pharmacia), washed, and then incubated with Tat for 60 min at room temperature, followed by centrifugation.
(§1) To determine whether increased expression of MCP-1 would correlate with increased protein synthesis or release, we next analyzed the supernatants of Tat treated astrocytes by ELISA and Western blot. […] This increase was specific in that astrocytic release of RANTES, MIP-1α and MIP-1β was not observed.

[3] = system: astrocytic release of RANTES, MIP-1α and MIP-1β; assay: ELISA detection of RANTES, MIP-1α and MIP-1β in astrocyte supernatants; type: cell-based, human; conditions: Tat treated astrocytes; ELISA detection limit 10 pg/ml
Method: MIP1-1α, MIP-1β and RANTES were detected by ELISA (R&D Systems). These ELISAs could detect concentrations as low as 10 pg/ml. Protein measurements were determined by comparison to a standard curve, run in duplicate with each assay.
as §1

[4] = system: astrocytes; assay: Astrocyte proliferation assay (tritiated thymidine); type: cell-based, human; conditions: Tat 10-1000 nM, twenty hr after administration
Method: Astrocytes were grown in 96 well plates. At 70% confluency, cells were treated with varying concentrations of exogenous Tat, in media, which contained 1 μCi per well of tritiated thymidine (New England Nuclear). […] Filters were then dried and placed into scintillation fluid for counting in a Betaplate Apparatus.

Row | Molecule | astrocytic MCP-1 expression (MCP-1 encoding RNA) ([1]; 100 nM Tat, 2 or 4 hr stimulation, human astrocytes) | release of MCP-1 after pre-treatment of Tat with trypsin ([2]; 100 nM equivalent of Tat digested with trypsin (Tat-tr)) | release of MCP-1 after immunoabsorption of Tat with a specific antibody ([2]; 100 nM equivalent of immunoabsorbed Tat (Tat-im)) | astrocytic release of MCP-1 ([2]; Tat 0.01 to 1.0 μM, 20 hr, 10^6 cells in 1 ml medium) | concentrations of Tat sufficient to increase astrocytic MCP-1 release ([2]; human astrocytes) | astrocytic release of RANTES, MIP-1α and MIP-1β [3] | astrocyte proliferation [4] | ability to increase astrocytic expression of MCP-1, compared with Tat1-72 ([1]; Tat1-86 (Intracel) versus recombinant Tat1-72)
1 | Tat: Highly purified recombinant Tat1-72, HIV-1 encoded transactivator protein (protein, UniProt P04608 1-72, looked up, fragment) MEPVDPRLEPWKHPGSQPKTACTNCYCKKCCFHCQVCFITKALGISYGRKKRRQRRRAHQNSQTHQASLSKQ | increase in astrocytic MCP-1 expression; also recorded: increase in MCP-1 encoding RNA as early as 2 hr | could be inhibited | could be inhibited | significant increase in MCP-1 release; also recorded: dose-dependent increase in astrocytic release of MCP-1 | low nanomolar | not observed | no measurable increase in astrocyte proliferation | –
2 | Tat1-86: Tat1-86 (Intracel), HIV-1 Tat protein (protein, UniProt P04608 1-86, looked up, full-length, Tat1-86 (Intracel), HIV-1 Tat protein) MEPVDPRLEPWKHPGSQPKTACTNCYCKKCCFHCQVCFITKALGISYGRKKRRQRRRAHQNSQTHQASLSKQPTSQPRGDPTGPKE | – | – | – | – | – | – | – | similar

— patent US6541208B1, “Diagnostic method for distinguishing HIV-associated dementia from other forms of dementia” (University of Maryland Biotechnology Institute, priority 1998, dated 2003)
